For three molecules, Kd results are on record in article PMC2120604.

B1: GST-lamin B2 tail (residues 382-596) (domain or fragment)
chain: LSPSPSSRITISRATSSSSSSSGVGMSVGQGRGKRRRLETEDTSGSPSRASRVSSGSRLAQQTVATGVVNIDEVDPEGRFVRLKNSSDKDQSLGNWRIKRQVLEGEDIAYKFTPKYVLRAGQTVTVWAAGAGATHSPPSTLVWKSQTNWGPGESFRTALVSADGEEVAVKAAKHSSVQGRENGEEEEEEEAEFGEEDLFHQQGDPRTTSRGCRLM
modifications: 125I-labelled (Iodogen) where used as the radiolabelled ligand
B2: GST-lamin B1 tail (residues 391-588) (domain or fragment)
chain: LSPSPSSRVTVSRASSSRSVRTTRGKRKRVDVEESEASSSVSISHSASATGNVCIEEIDVDGKFIRLKNTSEQDQPMGGWEMIRKIGDTSVSYKYTSRYVLKAGQTVTVWAANAGVTASPPTDLIWKNQNSWGTGEDVKVILKNSQGEEVAQRSTVFKTTIPEEEEEEEEEPIGVAVEEERFHQQGAPRASNKSCAIM
modifications: 125I-labelled (Iodogen) where used as the radiolabelled ligand

For this experiment, the target named is rat liver chromatin fragments (rat (endogenous in liver)). The experiment is described as follows: radioligand binding.
For the molecule “GST-lamin C tail (residues 389-572) (from UniProt P02545-2 389-572) (domain or fragment)”, the Kd (in general, the concentration at which binding is half-saturated) is 300 nM.
As for B1, the figure is 230 nM; as for B2, 120 nM.
